{"source": "paper PMC3747585", "key": {"[1]": {"target": "NT-647-labeled human C7 (human) (UniProt P10643)", "experiment": "MST"}, "[2]": {"target": "NT-647-labeled human C9 (human) (UniProt P02748)", "experiment": "MST"}, "[3]": {"target": "CspA (full-length CspA^26–251) from Borrelia burgdorferi (Borrelia burgdorferi)", "experiment": "ELISA"}}, "data": [{"substance": "CspA (full-length CspA^26–251) from Borrelia burgdorferi (natural protein)", "values": [{"measurement": "Kd", "setting": "[1]", "result": 5.1, "unit": "µM"}, {"measurement": "Kd", "setting": "[2]", "result": 3.4, "unit": "µM"}]}, {"substance": "factor H (from UniProt P08603 19-1231) (natural protein)", "values": [{"measurement": "percent reduction of C7 binding to CspA by factor H at 5 µg/ml", "setting": "[3]", "result": 17, "unit": "%"}, {"measurement": "percent reduction of C9 binding to CspA by factor H at 5 µg/ml", "setting": "[3]", "result": 23, "unit": "%"}]}, {"substance": "human terminal complement component C7 (from UniProt P10643 23-843) (natural protein)", "values": [{"measurement": "percent reduction of binding by NaCl at 0.15 M", "setting": "[3]", "result": 60, "unit": "%"}, {"measurement": "percent reduction of binding by heparin at 500 µg/ml", "setting": "[3]", "result": 42, "unit": "%"}]}, {"substance": "human terminal complement component C9 (from UniProt P02748 22-559) (natural protein)", "values": [{"measurement": "percent inhibition of binding by NaCl at 0.15 M", "setting": "[3]", "result": 35, "unit": "%"}]}]}
